Measured values published in US20050118674A1, “Engineering of Controlled Deamidation Rates in Peptides, Proteins, and Similar Structures” (priority 2003, published 2005).

Assay: First-order nonenzymatic deamidation of pentapeptides in Tris buffer
Assay type: physicochemical
Details: pH 7.4, 37.0° C., 0.15 M Tris HCl; Asn pentapeptides
Description: One of the discoveries made was that the sequence dependence of deamidation is much richer and covers a wider range than previously thought. In 37° C., pH 7.4, 0.15 M Tris buffer, the combination of XxxAsnYyy and XxxGlnYyy sequences where Xxx and Yyy are any of the naturally occuring amino acids covers a range from less than 1 day to over 15,000 days with the entire range in between available.
It is based on pentapeptide rates measure in 37° C., pH 7.4, 0.15 M Tris buffer. The applicability of a pentapeptide model to sequence dependence was verified in a separate set of experiments. All values listed in this table are experimental except for the four values in boxes, which were estimated from the rest of the data.
It is also based on pentapeptide rates measure in 37° C., pH 7.4, 0.15 M Tris buffer. In this case, the 52 values shown in bold were measured, and the rest of the values were derived from surface fitting.
Deamidation rates are affected by a wide variety of parameters, including, pH, Temperature, Ionic Strength, and Buffer Ions. These rates are measured under pH and Temperature conditions that are applicable to biological systems. The buffer type and concentration were chosen to minimize ion affects to the extent possible given the experimental limitations. Modification of these conditions will change the rates in Tables 1 and 2. As long as the conditions are not taken to extremes (i.e. high temperature, or strongly acidic or basic conditions) the qualitative sequence dependence should remain the same and the rates reported here can be used with necessary adjustments.

Substance	First-Order Deamidation Halftimes of GlyXxxAsnYyyGly [days]
GlyArgAsnLysGly (GRNKG; printed: GlyArgAsnLysGly)	49.6
GlyArgAsnMetGly (GRNMG; printed: GlyArgAsnMetGly)	74.4
GlyArgAsnPheGly (GRNFG; printed: GlyArgAsnPheGly)	68.3
GlyArgAsnProGly (GRNPG; printed: GlyArgAsnProGly)	5790
GlyArgAsnSerGly (GRNSG; printed: GlyArgAsnSerGly)	14.3
GlyArgAsnThrGly (GRNTG; printed: GlyArgAsnThrGly)	50.7
GlyArgAsnTrpGly (GRNWG; printed: GlyArgAsnTrpGly)	127
GlyArgAsnTyrGly (GRNYG; printed: GlyArgAsnTyrGly)	90.0
GlyArgAsnValGly (GRNVG; printed: GlyArgAsnValGly)	247
GlyAspAsnAlaGly (GDNAG; printed: GlyAspAsnAlaGly)	24.0
GlyAspAsnAmCysGly	45.8
GlyAspAsnArgGly (GDNRG; printed: GlyAspAsnArgGly)	87.2
GlyAspAsnAspGly (GDNDG; printed: GlyAspAsnAspGly)	29.4
GlyAspAsnCysGly (GDNCG; printed: GlyAspAsnCysGly)	54.1
GlyAspAsnGluGly (GDNEG; printed: GlyAspAsnGluGly)	46.8
GlyAspAsnGlyGly (GDNGG; printed: GlyAspAsnGlyGly)	1.53
GlyAspAsnHisGly (GDNHG; printed: GlyAspAsnHisGly)	9.7
GlyAspAsnIleGly (GDNIG; printed: GlyAspAsnIleGly)	298
GlyAspAsnLeuGly (GDNLG; printed: GlyAspAsnLeuGly)	111

Substance	First-Order Deamidation Halftimes of GlyXxxAsnYyyGly [days]
GlyAspAsnLysGly (GDNKG; printed: GlyAspAsnLysGly)	75.9
GlyAspAsnMetGly (GDNMG; printed: GlyAspAsnMetGly)	57.3
GlyAspAsnPheGly (GDNFG; printed: GlyAspAsnPheGly)	70.1
GlyAspAsnProGly (GDNPG; printed: GlyAspAsnProGly)	11800
GlyAspAsnSerGly (GDNSG; printed: GlyAspAsnSerGly)	17.0
GlyAspAsnThrGly (GDNTG; printed: GlyAspAsnThrGly)	52.4
GlyAspAsnTrpGly (GDNWG; printed: GlyAspAsnTrpGly)	80.3
GlyAspAsnTyrGly (GDNYG; printed: GlyAspAsnTyrGly)	70.4
GlyAspAsnValGly (GDNVG; printed: GlyAspAsnValGly)	241
GlyCysAsnAlaGly (GCNAG; printed: GlyCysAsnAlaGly)	26.4
GlyCysAsnArgGly (GCNRG; printed: GlyCysAsnArgGly)	83.1
GlyCysAsnAspGly (GCNDG; printed: GlyCysAsnAspGly)	30.6
GlyCysAsnCysGly (GCNCG; printed: GlyCysAsnCysGly)	46.0
GlyCysAsnGluGly (GCNEG; printed: GlyCysAsnGluGly)	48.3
GlyCysAsnGlyGly (GCNGG; printed: GlyCysAsnGlyGly)	1.14
GlyCysAsnHisGly (GCNHG; printed: GlyCysAsnHisGly)	10.8
GlyCysAsnIleGly (GCNIG; printed: GlyCysAsnIleGly)	304
GlyCysAsnLeuGly (GCNLG; printed: GlyCysAsnLeuGly)	119
GlyCysAsnLysGly (GCNKG; printed: GlyCysAsnLysGly)	46.6

Same assay, conditions: pH 7.4, 37.0 ° C., 0.15 M Tris HCl; Gln pentapeptides; 52 values measured, rest derived from surface fitting

Substance	First-Order Deamidation Halftimes of GlyXxxGlnYyyGly [days]
GlyArgGlnAlaGly (GRQAG; printed: GlyArgGlnAlaGly)	4400
GlyArgGlnArgGly (GRQRG; printed: GlyArgGlnArgGly)	2300
GlyArgGlnAspGly (GRQDG; printed: GlyArgGlnAspGly)	5900
GlyArgGlnCysGly (GRQCG; printed: GlyArgGlnCysGly)	1000
GlyArgGlnGluGly (GRQEG; printed: GlyArgGlnGluGly)	5400
GlyArgGlnGlyGly (GRQGG; printed: GlyArgGlnGlyGly)	660
GlyArgGlnHisGly (GRQHG; printed: GlyArgGlnHisGly)	4900
GlyArgGlnIleGly (GRQIG; printed: GlyArgGlnIleGly)	5500
GlyArgGlnLeuGly (GRQLG; printed: GlyArgGlnLeuGly)	5400
GlyArgGlnLysGly (GRQKG; printed: GlyArgGlnLysGly)	4000
GlyArgGlnMetGly (GRQMG; printed: GlyArgGlnMetGly)	4100
GlyArgGlnPheGly (GRQFG; printed: GlyArgGlnPheGly)	7100
GlyArgGlnProGly (GRQPG; printed: GlyArgGlnProGly)	8100
GlyArgGlnSerGly (GRQSG; printed: GlyArgGlnSerGly)	4300
GlyArgGlnThrGly (GRQTG; printed: GlyArgGlnThrGly)	4200
GlyArgGlnTrpGly (GRQWG; printed: GlyArgGlnTrpGly)	11000
GlyArgGlnTyrGly (GRQYG; printed: GlyArgGlnTyrGly)	9200
GlyArgGlnValGly (GRQVG; printed: GlyArgGlnValGly)	5800

Substance	First-Order Deamidation Halftimes of GlyXxxGlnYyyGly [days]
GlyAspGlnAlaGly (GDQAG; printed: GlyAspGlnAlaGly)	7100
GlyAspGlnArgGly (GDQRG; printed: GlyAspGlnArgGly)	5200
GlyAspGlnAspGly (GDQDG; printed: GlyAspGlnAspGly)	8400
GlyAspGlnCysGly (GDQCG; printed: GlyAspGlnCysGly)	2100
GlyAspGlnGluGly (GDQEG; printed: GlyAspGlnGluGly)	8200
GlyAspGlnGlyGly (GDQGG; printed: GlyAspGlnGlyGly)	800
GlyAspGlnHisGly (GDQHG; printed: GlyAspGlnHisGly)	2500
GlyAspGlnIleGly (GDQIG; printed: GlyAspGlnIleGly)	6400
GlyAspGlnLeuGly (GDQLG; printed: GlyAspGlnLeuGly)	6200
GlyAspGlnLysGly (GDQKG; printed: GlyAspGlnLysGly)	4600
GlyAspGlnMetGly (GDQMG; printed: GlyAspGlnMetGly)	5200
GlyAspGlnPheGly (GDQFG; printed: GlyAspGlnPheGly)	8500
GlyAspGlnProGly (GDQPG; printed: GlyAspGlnProGly)	11000
GlyAspGlnSerGly (GDQSG; printed: GlyAspGlnSerGly)	6200
GlyAspGlnThrGly (GDQTG; printed: GlyAspGlnThrGly)	5400
GlyAspGlnTrpGly (GDQWG; printed: GlyAspGlnTrpGly)	17000
GlyAspGlnTyrGly (GDQYG; printed: GlyAspGlnTyrGly)	13000
GlyAspGlnValGly (GDQVG; printed: GlyAspGlnValGly)	6600
